# Results taken from the Human Domainome abundance scans (Beltran et al. 2025).
# ± gives the uncertainty stated by the source.
# B1: Transcription factor SOX-4, residues 60 to 127; numbered along this chain, Q06945 (parent)
# chain: KRPMNAFMVWSQIERRKIMEQSPDMHNAEISKRLGKRWKLLKDSDKIPFIREAERLRLKHMADYPDYK
# Variants of: B1
# Test: abundance fitness (aPCA) (normalised: wild type 0, dead -1); higher = more abundant; growth selection in yeast, the domain comes from the species named
# Conditions: Homo sapiens
row,Variant,abundance fitness
1,W10M,-1.08 ± 0.34
2,W10T,-0.958 ± 0.24
3,W10C,-1.03 ± 0.43
4,W10P,-0.751 ± 0.13
5,W10S,-0.893 ± 0.14
6,W10F,-0.155 ± 0.12
7,W10Y,-0.554 ± 0.2
8,W10R,-0.649 ± 0.093
9,W10L,-0.999 ± 0.12
10,W10E,-0.964 ± 0.28
11,W10V,-0.621 ± 0.1
12,W10G,-0.954 ± 0.2
13,W10A,-1.03 ± 0.21
14,W10Q,-0.921 ± 0.33
15,R2T,-0.457 ± 0.2
16,R2G,-0.121 ± 0.086
17,R2D,-0.053 ± 0.13
18,R2Q,-0.039 ± 0.088
19,R2V,-0.08 ± 0.07
20,R2Y,-0.374 ± 0.41
21,R2F,-0.113 ± 0.12
22,R2P,-0.519 ± 0.16
23,R2I,-0.012 ± 0.12
24,R2S,0.003 ± 0.093

row,Variant,abundance fitness
1,R2A,-0.08 ± 0.093
2,R2H,-0.305 ± 0.19
3,R2N,-0.154 ± 0.16
4,R2W,-0.164 ± 0.095
5,R2L,-0.275 ± 0.067
6,R2K,-0.135 ± 0.12
7,R2M,-0.088 ± 0.062
8,R2E,-0.362 ± 0.12
9,M8W,-0.204 ± 0.055
10,M8C,-0.278 ± 0.061
11,M8P,-1.01 ± 0.29
12,M8D,0.088 ± 0.049
13,M8Q,0.193 ± 0.059
14,M8N,-0.242 ± 0.04
15,M8S,-0.072 ± 0.037
16,M8K,-0.205 ± 0.054
17,M8R,-0.176 ± 0.038
18,M8F,-0.133 ± 0.041
19,M8G,0.025 ± 0.041
20,M8T,-0.068 ± 0.058
21,M8E,0.232 ± 0.073
22,M8I,-0.181 ± 0.044
23,M8V,-0.178 ± 0.048
24,M8L,-0.084 ± 0.043

row,Variant,abundance fitness
1,M8H,0.042 ± 0.062
2,M8A,0.023 ± 0.044
3,I13C,-0.29 ± 0.17
4,S11I,-0.737 ± 0.079
5,S11L,-0.432 ± 0.045
6,S11T,-0.69 ± 0.11
7,S11M,-0.394 ± 0.079
8,S11D,-0.758 ± 0.085
9,S11N,-0.762 ± 0.099
10,S11W,-0.608 ± 0.089
11,S11Y,-0.29 ± 0.048
12,S11V,-0.529 ± 0.058
13,S11Q,-0.323 ± 0.092
14,S11E,-0.031 ± 0.11
15,S11C,-0.206 ± 0.047
16,S11H,-0.703 ± 0.088
17,S11F,-0.217 ± 0.044
18,S11R,-0.63 ± 0.058
19,S11P,-0.99 ± 0.19
20,N5S,0.016 ± 0.065
21,N5K,-0.553 ± 0.11
22,N5Y,-0.472 ± 0.18
23,N5H,-0.632 ± 0.18
24,N5P,-0.546 ± 0.11

row,Variant,abundance fitness
1,N5R,-0.879 ± 0.19
2,N5L,-0.589 ± 0.095
3,N5A,-0.559 ± 0.1
4,N5M,-0.842 ± 0.13
5,N5W,-0.439 ± 0.16
6,N5T,0.095 ± 0.047
7,N5I,-0.665 ± 0.23
8,N5D,-0.032 ± 0.15
9,N5G,-0.278 ± 0.081
10,N5Q,-0.585 ± 0.12
11,N5V,-0.828 ± 0.16
12,Q12N,-0.015 ± 0.099
13,Q12S,-0.134 ± 0.06
14,Q12W,-0.662 ± 0.1
15,Q12D,0.179 ± 0.12
16,Q12G,-0.265 ± 0.05
17,Q12F,-0.494 ± 0.1
18,Q12C,-0.07 ± 0.06
19,Q12V,-0.434 ± 0.092
20,Q12L,-0.194 ± 0.055
21,Q12H,-0.116 ± 0.23
22,Q12R,-0.267 ± 0.042
23,Q12E,0.05 ± 0.069
24,Q12A,-0.138 ± 0.1

row,Variant,abundance fitness
1,Q12P,-0.812 ± 0.15
2,Q12I,-0.101 ± 0.15
3,Q12Y,-0.343 ± 0.17
4,Q12T,-0.166 ± 0.079
5,A6V,-0.507 ± 0.054
6,A6K,-0.791 ± 0.092
7,A6S,-0.495 ± 0.05
8,A6M,-1.01 ± 0.098
9,A6G,-0.079 ± 0.04
10,A6C,-0.692 ± 0.087
11,A6R,-0.713 ± 0.054
12,A6T,-0.797 ± 0.091
13,A6P,-0.111 ± 0.092
14,A6D,-0.607 ± 0.076
15,A6W,-0.896 ± 0.1
16,A6I,-0.794 ± 0.083
17,A6H,-1.12 ± 0.36
18,A6F,-0.671 ± 0.095
19,A6E,-0.656 ± 0.074
20,A6N,-0.943 ± 0.074
21,A6Q,-0.617 ± 0.094
22,A6L,-0.843 ± 0.078
23,V9F,-0.482 ± 0.15
24,V9I,0.066 ± 0.057

row,Variant,abundance fitness
1,V9Q,-0.76 ± 0.16
2,V9K,-0.978 ± 0.29
3,V9T,-0.38 ± 0.2
4,V9C,-0.258 ± 0.16
5,V9M,-0.266 ± 0.13
6,V9E,-0.856 ± 0.19
7,V9N,-0.609 ± 0.21
8,V9A,-0.473 ± 0.085
9,V9W,-0.694 ± 0.13
10,V9R,-1 ± 0.14
11,V9H,-0.733 ± 0.18
12,V9P,-0.617 ± 0.21
13,V9L,0.037 ± 0.046
14,V9S,-0.803 ± 0.15
15,P3W,-0.561 ± 0.077
16,P3R,-0.149 ± 0.039
17,P3E,0.072 ± 0.074
18,P3A,-0.114 ± 0.053
19,P3M,-0.163 ± 0.063
20,P3V,-0.136 ± 0.049
21,P3G,-0.166 ± 0.036
22,P3N,-0.108 ± 0.049
23,P3Y,-0.182 ± 0.042
24,P3L,-0.216 ± 0.053

row,Variant,abundance fitness
1,P3H,-0.055 ± 0.064
2,P3S,-0.122 ± 0.041
3,P3Q,-0.048 ± 0.065
4,P3I,-0.416 ± 0.079
5,P3K,-0.103 ± 0.07
6,P3F,-0.186 ± 0.056
7,M4L,-0.105 ± 0.053
8,M4P,0.002 ± 0.073
9,M4Q,-0.412 ± 0.11
10,M4F,-0.033 ± 0.11
11,M4N,-0.265 ± 0.11
12,M4H,-0.589 ± 0.14
13,M4A,-0.227 ± 0.075
14,M4T,-0.077 ± 0.065
15,M4E,-0.202 ± 0.081
16,M4I,0.047 ± 0.07
17,M4C,-0.709 ± 0.22
18,M4D,-0.28 ± 0.071
19,M4G,-0.311 ± 0.063
20,M4Y,-0.236 ± 0.076
21,M4V,-0.068 ± 0.044
22,M4S,-0.492 ± 0.085
23,K1Y,-0.116 ± 0.13
